Common to all, as to assay: native gel or EMSA
On the technique in general: Mobility shift assays separate free from complexed probe on a gel.

The target in assay [1] is complex V (CV) (bovine (endogenous in bovine heart mitochondria)).
The target of assay [2] is complex III (CIII) (bovine (endogenous in bovine heart mitochondria)).
Assay [3] concerns the target Apoptosis Inducing Factor 1 (AIFM1) (bovine (endogenous in bovine heart mitochondria)).
Assay [4] deals with cytochrome c oxidase (COX), monomeric (bovine (endogenous in bovine heart mitochondria)) (UniProt P00429).
Sequence of UniProt P00429 (P00429 whole entry, looked up): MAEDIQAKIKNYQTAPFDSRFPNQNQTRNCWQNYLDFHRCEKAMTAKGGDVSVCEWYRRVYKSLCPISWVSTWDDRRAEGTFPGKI

In turn, complex V (CV) showed a stoichiometry N in assay [1] of 2. Regarding complex III (CIII), the stoichiometry N in assay [2] worked out at 2. With “Apoptosis Inducing Factor 1 (AIFM1) (natural protein)”, the stoichiometry N in assay [3] was 2. Besides, in assay [4], the percent of monomeric COX engaged in the complex is 10% and the stoichiometry N (AIFM1 per COX monomer) came to 2.

As usually defined, the stoichiometry N is the number of molecules, sites or subunits per partner or assembly.

The values above are taken from paper doi:10.1101/2021.03.31.437858.
